What was measured:
[1] = molecular target: T1, monkey CD33-His protein (monkey); test: ELISA on coated monkey CD33-his
T1 construct: also called monkey CD33 protein

[2] = molecular target: T2, human CD33-His (extracellular domain Asp 18-His 259) (human, UniProt P20138 18-259); test: ELISA on coated human CD33-his
T2 construct: range 18-259; bought protein; also called hCD33-his; human CD33 protein; not shown: His tag
Method: In order to assay the binding activity of VHH-Fc to human CD33 protein, a human CD33-his protein (purchased from ACROBiosystems, Cat. No. CD3-H5226) was diluted with PBS to make a final concentration of 2 μg/mL, and then added into a 96-well ELISA plate at 100 μL/well. The plate was sealed with a plastic film and incubated at 4° C. overnight, washed twice with PBS the next day, and a blocking solution [PBS+2% (w/w) BSA] was added for blocking at room temperature for 2 h. The blocking solution was discarded, and VHH-Fc antibody or negative control antibody serially diluted from 100 nM was added at 50 μL/well. After incubation at 37° C. for 2 h, the plate was washed 3 times with PBS. A secondary antibody labeled with HRP (horseradish peroxidase) (purchased from Sigma, Cat. No. A0170) was added. After incubation for 1 h at 37° C., the plate was washed 5 times with PBS. A TMB substrate was added at 50 μL/well. After incubation at room temperature for 10 min, a stop solution (1.0 N HCl) was added at 50 μL/well. The OD450 nm values were read on an ELISA plate reader (Multimode Plate Reader, EnSight, purchased from Perkin Elmer). The assay results for the binding of the VHH-Fc to hCD33-his by ELISA are shown in FIGS. 7A and 7B and Tables 11 and 12. […] The IgG control was hIgG1, and the data in the table are OD450 nm values. […]

[3] = molecular target: T3, human CD33-C2-his (human, UniProt P20138 136-260); test: ELISA on coated human CD33-C2-his
T3 construct: expressed in HEK293E; also called hCD33-C2-his; human CD33 protein C2-domain; not shown: His tag
T3 sequence (P20138 other isoform, or with tags, fused parts or gaps limits assumed): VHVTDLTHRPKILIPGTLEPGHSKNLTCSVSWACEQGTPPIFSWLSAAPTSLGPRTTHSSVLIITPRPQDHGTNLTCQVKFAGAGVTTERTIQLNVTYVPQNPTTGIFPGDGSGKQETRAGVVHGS
From the text: Plates were coated with human CD33-V-his (membrane distal end) and human CD33-C2-his (membrane proximal end), respectively, according to the ELISA method in Example 8. The VHH humanized antibodies were classified based on the membrane distal end and the membrane proximal end, as shown in FIGS. 20A-20J and Table 44, which allowed the classification of the VHH humanized antibodies into the following classes: […]

[4] = molecular target: T2, human CD33-His (extracellular domain …); test: competitive ELISA vs coated SGN-33 3ug/mL; soluble 25ug/ml
[5] = molecular target: T4, human CD33-his protein (human, UniProt P20138 18-259); test: competition ELISA, coated human CD33-his, vs Biotin-C33B904 at EC80; antibody 500 nM
T4 construct: range 18-259; bought protein; also called hCD33-his; recombinant human CD33-his; not shown: His tag
T4 sequence (P20138 18-259 limits assumed): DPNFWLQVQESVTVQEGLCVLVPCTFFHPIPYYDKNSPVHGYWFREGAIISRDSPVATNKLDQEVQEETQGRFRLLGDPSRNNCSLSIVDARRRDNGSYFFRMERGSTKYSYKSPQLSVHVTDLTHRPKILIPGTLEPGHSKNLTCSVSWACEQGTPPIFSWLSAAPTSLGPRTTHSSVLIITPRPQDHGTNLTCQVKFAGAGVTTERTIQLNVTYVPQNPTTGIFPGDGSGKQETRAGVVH
Method: ELISA plates were coated with 2 μg/mL human CD33-his protein according to the method in Example 5.1; the Biotin-C331B904 antibody was subjected to a gradient dilution from 15 μg/mL, and EC80 values (0.18 μg/mL) were calculated. ELISA plates were coated with 2 μg/mL human CD33-his protein; starting from 40 μg/mL, the VHH antibodies to be tested were diluted in a 1:2 dilution ratio to obtain seven concentrations and added to the ELISA plates, and then Biotin-C331904 antibodies with the EC80 concentrations were added for incubation for 2 h. The plates were washed 5 times with PBS and then […] (purchased from Sigma, Cat. No. S2438) were added for incubation for 1 h, and the plates were washed 5 times. A TMB substrate was added at 50 μL/well and incubated at room temperature for 10 min, then a stop solution (1.0 M HCl) was added at 50 μL/well. OD_{450 nm} values were read using an ELISA plate reader (Insight, purchased from PerkinElmer). Then, analysis was performed by software (GraphPad Prism8), and data were fitted for curve plotting. The results are shown in FIGS. 13A-13B and Tables 28 and 29.

[6] = molecular target: T4, human CD33-his protein; test: competition ELISA, coated human CD33-his, vs Biotin-C33B904 at EC80; antibody 0.98 nM
Method: (§1) The plate was sealed with a plastic film and incubated at 4° C. overnight, washed twice with PBS the next day, and a blocking solution [PBS+2% (w/w) BSA] was added for blocking at room temperature for 2 h. The blocking solution was discarded, and VHH-Fc antibody or negative control antibody serially diluted from 100 nM was added at 50 μL/well. After incubation at 37° C. for 2 h, the plate was washed 3 times with PBS. A secondary antibody labeled with HRP (horseradish peroxidase) (purchased from Sigma, Cat. No. A0170) was added. After incubation for 1 h at 37° C., the plate was washed 5 times with PBS. A TMB substrate was added at 50 μL/well. After incubation at room temperature for 10 min, a stop solution (1.0 N HCl) was added at 50 μL/well. The OD450 nm values were read on an ELISA plate reader (Multimode Plate Reader, EnSight, purchased from Perkin Elmer). The assay results for the binding of the VHH-Fc to hCD33-his by ELISA are shown in FIGS. 7A and 7B and Tables 11 and 12. […] The IgG control was hIgG1, and the data in the table are OD450 nm values.
(§2) ELISA plates were coated with 2 μg/mL human CD33-his protein according to the method in Example 5.1; the Biotin-C331B904 antibody was subjected to a gradient dilution from 15 μg/mL, and EC80 values (0.18 μg/mL) were calculated. […] OD_{450 nm} values were read using an ELISA plate reader (Insight, purchased from PerkinElmer). […]

[7] = molecular target: T4, human CD33-his protein; test: competition ELISA, coated human CD33-his, vs Biotin-C33B904 at EC80; antibody 62.50 nM
Method: as §1, §2

T2 sequence (P20138 18-259 limits assumed): as above

EC50 (read off the curve) [1] [nM] | EC50 (read off the curve) [2] [nM] | EC50 (read off the curve) [3] [nM] | inhibition rate [4] [%] | OD450 (Biotin-C33B904 signal) [5] | OD450 (Biotin-C33B904 signal) [6] | OD450 (Biotin-C33B904 signal) [7] | Binder
~0.3 | ~0.3 | ~0.2 | 14 |  |  |  | C33B904 hIgG1 (antibody, V domains shown, intact human IgG1; variable regions from US20190382481A1; also called C33B3904; C331B904) VH: EVQLVESGGGLVQPGRSLRLSCAASGFTFDDYAMHWVRQAPGKGLEWVSGIGWSGGSIVYADSVKGRFTISRDNAKNSLYLQMNSLRAEDTALYYCAKDSPYGDFFDYWGQGTLVTVSS VL: DIVMTQSPDSLAVSLGERATINCKSSQTVFYSSNNKNYLAWYQQKPGQPPKLLISWASTRKSGVPDRFSGSGSGTDFTLTVSSLQAEDVAVYYCQHYYSTPYTFGQGTKLEIKR
 |  |  |  | 0.08 | 2.31 | 0.24 | C33B904 (antibody, human IgG1, kappa, V domains shown, control antibody, intact human IgG1 form; variable regions from US20190382481A1; also called C33B904 hIgG1; C331B904) VH: EVQLVESGGGLVQPGRSLRLSCAASGFTFDDYAMHWVRQAPGKGLEWVSGIGWSGGSIVYADSVKGRFTISRDNAKNSLYLQMNSLRAEDTALYYCAKDSPYGDFFDYWGQGTLVTVSS VL: DIVMTQSPDSLAVSLGERATINCKSSQTVFYSSNNKNYLAWYQQKPGQPPKLLISWASTRKSGVPDRFSGSGSGTDFTLTVSSLQAEDVAVYYCQHYYSTPYTFGQGTKLEIKR
